Measurements from the RNAGym collection of RNA variant scans (doi:10.1073/pnas.2313332121).
Variants at the floor of the assay were thinned out.

B1: TPR 5TU (parent)
chain: GGAUCUUCUCGAUCUAACAAAAAAGACAAAUCUGCCACAAAGCUUGAGAGCAUCUUCGGAUGCAGAGGCGGCAGCCUUCGGUGGCGCGAUAGCGCCAACGUUCUCAACUAUGACACGCAAAACGCGUGCUCCGUUGAAUGGAGUUUAUCAUG

Variants of: B1
Assay: polymerase ribozyme fitness, log enrichment relative to wild type (log ratio); higher = more active; in vitro selection for triplet polymerase activity
How it was run: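 After PCR construction and transcription, each subunit's mutant library from a heterodimeric triplet polymerase ribozyme was annealed with a biotinylated primer, the partner subunit and triplets. Incubation was frozen, at −7 °C, and extended constructs were gel-excised, bound to streptavidin beads and amplified by RT-PCR, in one selection round done in triplicate. Fitness is the logarithm of a genotype's enrichment divided by that of the wild type, from inverse-variance-weighted replicate averages of Illumina-sequenced inputs and outputs. The base of the logarithm is 2, and genotypes needed ≥10 input reads and ≥1 read per output.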

Variant | polymerase ribozyme fitness (log ratio)
C38G A41U C79U G92C C123A | ≤ -4.2
U55A A91U G136A | ≤ -4.2
C27G G84A G136U | ≤ -4.2
A21G | 0.531
A40U C51U G83A | -0.935
A19U U55A C63A A142U U148C | ≤ -4.2
A66G C85A A91G U148A | ≤ -4.2
A12U G48U U53A C54G G71A C75G G86A C95U A119C | ≤ -4.2
A107U G141C | -3.87
C27G G141U | -4.04
C32U G94U C116G | -3.95
A89C A107C | -4.06
C85U U102G | -3.32
U31C U45A A97U G117A | -4.09
C85G C129G | -4.11
A16U C93U | -2.81
C99G C108A A110G | ≤ -4.2
C35G G88A C95U U101A G141C | -4.12
G50U A73U G84A U109G | ≤ -4.2
U82A G126A G133C | -1.01
U4G A97G C103G | -3.15
C14A G34U G74C G84U G143A | ≤ -4.2
C18G G86A C87A A91C A120C | ≤ -4.2
C35U A91G G117U A142U | ≤ -4.2

Variant | polymerase ribozyme fitness (log ratio)
A19U G46A C51U A91G G124U U139A | ≤ -4.2
A16G A22U C85G G92A C93G C108G A113U G117C | ≤ -4.2
G50C G94A U127C G133U A138C | ≤ -4.2
A16G U33G U55A C95U | -3.89
C54U U55A | -0.284
C57G C85G | -1.95
A41C G50A G86A A98G | -3.62
U56C U102G A142G | -3.95
C96A A150C | -3.12
G59A C85G C99U A120G | ≤ -4.2
G83A U104G A120G | -1.21
A40C G67C G71C A98G C103A C105G | ≤ -4.2
A29U A52G U55C U134A | ≤ -4.2
C76U U78C A106C | -1.92
A23U C72U G83A U109A U151G | ≤ -4.2
A41C A47G | -0.27
U33A C38G A52U C87G G136A | ≤ -4.2
A37G C85U G88C C95U | ≤ -4.2
C32G U82G | ≤ -4.2
U55A U56A A66C G70C C108U | ≤ -4.2
C76G G83A U139A U146C U148C | ≤ -4.2
G50C U90A | ≤ -4.2
A20C G84U | -3.03
U6C C35U G59A A66C G84U C93U A98U G100A A106C A142C | ≤ -4.2

Variant | polymerase ribozyme fitness (log ratio)
A47C C85G C96U C125U | ≤ -4.2
U7A C10G U55A C72U G94A U151A | ≤ -4.2
A41C A52G G86U | -2.67
A17C G25C A41U C51A G84C G94U A110G U144C U146G | ≤ -4.2
C38U C76U C85G C96A C103A C114U C132U | -4.19
G42A A47C C85G C96G C116A A147U | ≤ -4.2
A91G U130G A150G | ≤ -4.2
C57U C87G G88U C95G C116U C123A U134C | ≤ -4.2
G46C C54A U61A C63U G70A G84A C93U G100A C116G | ≤ -4.2
C57A C69A U127A | ≤ -4.2
C32U C87G A142U | ≤ -4.2
C14G U55A G84A G141A | -3.7
C35A G42A A91U | -3.84
A12G C27U G46U C57A C85G A122C | -3.63
U53A G74A U77A C96U G126C | ≤ -4.2
G88A | -3.75
A3G C5U C35U C85U A106G | 0.235
G11A A89G G94A C105G G112C | ≤ -4.2
A3G A24C U53A U61A C85G | ≤ -4.2
C103G A115C A137G C149G | ≤ -4.2
C35U G80A A91G G136A | -3.57
A30G C32A C43A C93A C105A | ≤ -4.2
A40C G128U G143U | ≤ -4.2
A60G G74A | -3.26

Variant | polymerase ribozyme fitness (log ratio)
A89U C95G | -1.9
C93G G140U | ≤ -4.2
C14A C87A A97U G143A | ≤ -4.2
U45A C93A G141A | -4.05
C51U G68U C87U U145C | ≤ -4.2
U104G A120C | 0.532
A22C G84A C99A G152U | ≤ -4.2
C85A G143C | -3.01
C27G C76A | -3.63
G46A C96U | 0.0159
C14U C32G C69A | ≤ -4.2
A19G C27U | -1.17
A26U G84C U145G | ≤ -4.2
A52G C79G | -3.71
C5U A52U A64C G70C C85A C116G A122U C125U A150G | ≤ -4.2
A21C C93U A97U C116U C123U | -0.404
A39G A47G G83A A142G | ≤ -4.2
U31G A40U G48A G84A C87U A119U | ≤ -4.2
U6A C18A A21U U56G G68A A91U G128C U139A G143A | ≤ -4.2
A24C C85U | -3.65
C57U A91U | -3.95
U55G U127G | -2.9
A22U A52C G58C G84U C99A | ≤ -4.2
G124C G143U | -3.2

Variant | polymerase ribozyme fitness (log ratio)
U6G A23G U144G | -3.95
A17U G48A C51G U55G C96G C105U C118U G136U G141U | ≤ -4.2
U135C U145C | -2.51
C51U C116G G140C | -4.07
G34A G84A C95G | -0.00509
C38U G70A C95A C99U A107U | ≤ -4.2
G11A C27G U53A G83U G86A G140A | ≤ -4.2
A73G A142G | -1.38
U31G C32U C72A C123G G152A | ≤ -4.2
A30U U53A | -3.18
A3C U7A C10U U53A G92C A138G | ≤ -4.2
G46A A52G G86U A91G A98U C114G | ≤ -4.2
A22G C51U G83A | 0.818
G58A C87G A142C | ≤ -4.2
C14U G83C A106C | -2.96
A20U A137C | -3.99
C14U C54U | -1.87
A24C A26U U31A G68U C87A A89G A98G C132G | ≤ -4.2
A21U C75A A122U | -3.97
U7G A64C A122G | ≤ -4.2
U53A G59C A60G G84A | -1.76
A12C C114U | -2.51
A26G C27U G46U G50U C75A | ≤ -4.2
A22U A41C G70C U82G | ≤ -4.2

Variant | polymerase ribozyme fitness (log ratio)
U13C A49C C93A | ≤ -4.2
A12U C36G G92C A147G | ≤ -4.2
G84U C103U | -1.74
A30U G94C A150U | -3.55
A12G A29C C35G C95A C118A G133C | ≤ -4.2
A89C G124A | -1.59
A39G C99G C108U | ≤ -4.2
U9C C54A C87G U134A | ≤ -4.2
G59U G67A G92U | -3.83
U53A G71A C75G C76U G86A A107U C108U | ≤ -4.2
U15A A17U C57G G88U A91C U111C C129A U134G U148C | ≤ -4.2
U6C A24G U31A A52C C87U U90G G92U C93A | ≤ -4.2
C125G A142C | -4.01
U33C U56G C93U | ≤ -4.2
A17C C27U C38A C85U | -0.305
U44A A73U C105G A120G | ≤ -4.2
A40G U56A G67A G83A | ≤ -4.2
G83U C87U A89C G141A A142G | ≤ -4.2
A52G C69G C85G A97U G126A G141U | ≤ -4.2
U9G A21U A24G C72U A147C | ≤ -4.2
A19U A28G G50A G68A G94U | ≤ -4.2
U6A A19G C38G U61A G94C C103G | ≤ -4.2
C14G A24G U31A A49C A52C C54A U56A A73U A89G C99G A107C C149G | ≤ -4.2
A60G A119C A120U U151C | -4.18

Variant | polymerase ribozyme fitness (log ratio)
A12G C36A C69U C85G A89C A113U | ≤ -4.2
C10G A52U C72U G86U C93U C116G G124A U144C | ≤ -4.2
G71U A73U A97G U145G | ≤ -4.2
A17U C32G G48A C79G G84U G86U C108U | ≤ -4.2
U102C | -0.787
A119U U139C | -3.94
C96U A121U U139A | ≤ -4.2
A12G C96U | -0.793
C5A C27U U33G C79A | ≤ -4.2
A29U G92C U102C C116U | ≤ -4.2
A28G G84U | -4.02
U61A C96A | -1.36
C75G C76U A97U G141C | ≤ -4.2
U56A U61A C114G | -3.96
A21G A22U G67A G86C C96U G117A | ≤ -4.2
A16C C79A A91U C116A C149A | ≤ -4.2
A30C C95G C108U C132G G133U | ≤ -4.2
G67A G74C G94A A119G | ≤ -4.2
U44A U55A C69G G86U G141A | -4.2
C93U C125U | -1.43
A3U G42U G48C C75G G86A C108A | ≤ -4.2
A19U G68C C93G C131G | ≤ -4.2
U6A A41C U45A A49G G59U G86A | ≤ -4.2
